Columns and labels:
Assay in all cases: cell-based or functional assay
[1] = target: Leptin Receptor, long form (UniProt P48357)
[2] = target: Leptin Receptor, long form, P48357
GLUT4 = target: T1, GLUT4 (rat, UniProt P19357 1-509)
T1 sequence (looked up): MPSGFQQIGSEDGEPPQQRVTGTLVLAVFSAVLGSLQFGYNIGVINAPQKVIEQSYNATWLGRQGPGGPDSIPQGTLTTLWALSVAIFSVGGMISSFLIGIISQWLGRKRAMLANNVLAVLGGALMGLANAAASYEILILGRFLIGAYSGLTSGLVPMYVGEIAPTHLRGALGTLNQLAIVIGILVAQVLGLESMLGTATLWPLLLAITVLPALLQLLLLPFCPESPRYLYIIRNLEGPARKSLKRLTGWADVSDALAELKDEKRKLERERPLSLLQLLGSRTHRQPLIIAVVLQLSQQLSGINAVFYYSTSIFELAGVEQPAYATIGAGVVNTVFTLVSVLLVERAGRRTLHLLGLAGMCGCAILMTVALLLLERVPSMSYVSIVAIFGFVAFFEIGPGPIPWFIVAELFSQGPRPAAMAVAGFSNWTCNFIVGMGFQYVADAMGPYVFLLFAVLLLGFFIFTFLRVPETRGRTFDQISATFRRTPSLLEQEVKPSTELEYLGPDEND

human insulin receptor = human insulin receptor (human, UniProt P06213 28-1382)
[3] = target: mutated form of the insulin receptor, deletion of residues 713 to 740 (human, UniProt P06213 28-1382)

Leptin Receptor, long form, P48357, sequence (P48357 22-1165): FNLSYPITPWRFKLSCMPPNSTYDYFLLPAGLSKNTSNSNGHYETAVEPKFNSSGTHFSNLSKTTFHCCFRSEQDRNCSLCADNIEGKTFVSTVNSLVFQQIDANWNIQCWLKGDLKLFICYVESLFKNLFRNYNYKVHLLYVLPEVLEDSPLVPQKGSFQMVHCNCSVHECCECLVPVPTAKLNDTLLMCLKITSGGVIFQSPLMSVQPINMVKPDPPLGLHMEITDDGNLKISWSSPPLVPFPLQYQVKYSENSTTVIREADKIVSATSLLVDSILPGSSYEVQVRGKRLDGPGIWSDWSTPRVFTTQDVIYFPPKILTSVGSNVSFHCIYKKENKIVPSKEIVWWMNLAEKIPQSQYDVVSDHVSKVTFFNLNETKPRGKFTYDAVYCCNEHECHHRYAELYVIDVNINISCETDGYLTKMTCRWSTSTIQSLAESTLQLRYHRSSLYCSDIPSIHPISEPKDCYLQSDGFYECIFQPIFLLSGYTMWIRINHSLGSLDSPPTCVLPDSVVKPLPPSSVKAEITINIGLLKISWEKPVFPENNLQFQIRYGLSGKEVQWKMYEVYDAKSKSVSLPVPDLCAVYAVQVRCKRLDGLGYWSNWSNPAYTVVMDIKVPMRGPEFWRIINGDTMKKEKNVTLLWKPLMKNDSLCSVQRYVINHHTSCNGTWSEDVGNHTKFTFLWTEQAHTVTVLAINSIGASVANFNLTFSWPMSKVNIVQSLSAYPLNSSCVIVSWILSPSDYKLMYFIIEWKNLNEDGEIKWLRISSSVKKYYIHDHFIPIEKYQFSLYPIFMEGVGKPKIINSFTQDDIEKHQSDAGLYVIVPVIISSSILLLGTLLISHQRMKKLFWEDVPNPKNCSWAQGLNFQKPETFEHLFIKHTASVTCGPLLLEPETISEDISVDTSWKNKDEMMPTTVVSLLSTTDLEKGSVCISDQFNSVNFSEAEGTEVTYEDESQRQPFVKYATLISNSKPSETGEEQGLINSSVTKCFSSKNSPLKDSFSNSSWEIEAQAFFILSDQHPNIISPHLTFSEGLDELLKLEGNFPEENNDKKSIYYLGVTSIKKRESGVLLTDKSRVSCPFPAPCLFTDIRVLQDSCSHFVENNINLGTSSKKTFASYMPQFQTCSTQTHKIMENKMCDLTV
Leptin Receptor, long form, sequence (P48357 22-1165): as above

In the case of “Leptin (from UniProt P41159 22-167) (ligand)”, the activation (phosphorylation) of JAK2 with 1 ng/ml of OB alone, quantified western blot (arbitrary units) [1] is reported as 2.

KKENKIVPSKEIVWWMNLAEKIP [Leptin Receptor derived peptide] was tested, and the activation (phosphorylation) of JAK2 with 1 ng/ml of OB and 30 µM LRp together, quantified western blot (arbitrary units) [2] was 16 and the activation (phosphorylation) of JAK2 with 30 µM LRp alone, quantified western blot (arbitrary units) [2] was 8.

KTDSQILKELEESSFRKTFEDYLH [Insulin receptor derived peptide] was tested, and the “enhancement of glucose uptake in rat adipose cells, insulin + 10 µM pepIR” value (GLUT4) was 12 fold, the “percent internalized receptor at 5 min with 10 µM peptide (125I-insulin, acid wash)” value (“percent internalized receptor at 5 min” for short) (human insulin receptor) was 6% and the “percent internalized receptor at 15 min with 10 µM peptide (125I-insulin, acid wash)” value (shortened to “percent internalized receptor at 15 min”) (human insulin receptor) was 2%. The “percent internalized receptor at 30 min with 10 µM peptide (125I-insulin, acid wash)” value (“percent internalized receptor at 30 min” for short) (human insulin receptor) was 6%, the “percent internalized receptor at 60 min with 10 µM peptide (125I-insulin, acid wash)” value (“percent internalized receptor at 60 min” below) (human insulin receptor) was 2% and the “percent internalized receptor at 5 min” value [3] was 5%. The “percent internalized receptor at 15 min” value [3] was -2%, the “percent internalized receptor at 30 min” value [3] was 0% and the “percent internalized receptor at 60 min” value [3] was 2%.

For GNEQSFRVDLRTLLRYAGGGNEQSFRVDLRTLLRYA [DS-A85], the “percent internalized receptor at 5 min” value (human insulin receptor) was 5%, the “percent internalized receptor at 15 min” value (human insulin receptor) was 9% and the “percent internalized receptor at 30 min” value (human insulin receptor) was 14%. For the same molecule, the “percent internalized receptor at 60 min” value (human insulin receptor) was 17%, the “percent internalized receptor at 5 min” value [3] was -1% and the “percent internalized receptor at 15 min” value [3] was 0%. The “percent internalized receptor at 30 min” value [3] was 2% and the “percent internalized receptor at 60 min” value [3] was 1%.

For TWLGRQGPEGPSSIPPGTLTTLW [GLUT4pep], the “enhancement of glucose uptake in rat adipose cells, 10 nM insulin + GLUT4pep” value (GLUT4) was 24 fold.
